Results taken from patent US20250387474A1 (MEDICENNA THERAPEUTICS, published 2025).

Target: T1, MDNA132LR-Fc (1:1 KIH) (Homo sapiens (Human), UniProt P0DOX5 223-448 = IgG part)
T1 construct: also called MDNA132^L39/R111-Fc (1:1 KIH); MDNA132-Fc
Assay: SPR, construct captured on anti-human IgG (Fc) antibody on a CM5 chip, human receptor as analyte

Binder | binding result | Kd [nM]
human IL-13Rα1 (receptor, also called Human IL-13 R alpha 1 Protein; IL-13 functional receptor) GGGGAAPTETQPPVTNLSVSVENLCTVIWTWNPPEGASSNCSLWYFSHFGDKQDKKIAPETRRSIEVPLNERICLQVGSQCSTNESEKPSILVEKCISPPEGDPESAVTELQCIWHNLSYMKCSWLPGRNTSPDTNYTLYYWHRSLEKIHQCENIFREGQYFGCSFDLTKVKDSSFEQHSVQIMVKDNAGKIKPSFNIVPLTSRVKPDPPHIKNLSFHNDDLYVQWENPQNFISRCLFYEVEVNNSQTETHNVFYVQEAKCENPEFERNVENTSCFMVPGVLPDTLNTVRIRVKTNKLCYEDDKLWSNWSQEMSIGKKRNST | no binding (tested: 1000 nM) | 
human IL-13Rα2 (receptor, UniProt Q14627 27-343, looked up, also called Human IL-13 R alpha 2 Protein; IL-13 decoy receptor) DTEIKVNPPQDFEIVDPGYLGYLYLQWQPPLSLDHFKECTVEYELKYRNIGSETWKTIITKNLHYKDGFDLNKGIEAKIHTLLPWQCTNGSEVQSSWAETTYWISPQGIPETKVQDMDCVYYNWQYLLCSWKPGIGVLLDTNYNLFYWYEGLDHALQCVDYIKADGQNIGCRFPYLEASDYKDFYICVNGSSENKPIRSSYFTFQLQNIVKPLPPVYLTFTRESSCEIKLKWSIPLGPIPARCFDYEIEIREDDTTLVTATVENETYTLKTTNETRQLCFVVRSKVNIYCSDDGIWSEWSDKQCWEGEDLSKKTLLR |  | 3.6
